In a protein production outcome set (Wang et al. 2014) one finds protein production data, which are given here for ten sequences.
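Also: failed if final PepcDB status was selected cloned or expressed and not failed if soluble or beyond.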

The nature of the data set: label from the status in PepcDB records.
Take “MLKQTSDSPVGTLFIIIEDAHITKISYDEPTNWEILAGEKGEIAIYQQLLEQLAGYFEGEREVFDLPIFLQGTPFQQRVWQALSEIPYGVVVSYKDIAIAAGSPKAVQAVGQANRANPIPILIPCHRCVKSDGALGGYNGADIDKKQYLLALEKGLRLS”: the protein production entry is given as “failed”. With “MTTPLSPEATPPHGDLASGNVTRRILGIVVFNFIAYLSVGLPIAVVPGFVHGDLGYSAVLAGLAVSIQYLATLLSRPWAGSLCDMKGPKRSVLTGLLLCAGSGLLMLVAAQFAGNDWLALGWLLSSRLMLGAGESLVTTGTIAWGIGSVGARHTAKVISWNGVTTYGALAVGAPVGVLLAGHGGLTAIGIVTSVIAGASWLLARRQAAVPILKGERLPFRSVFRAMSPFGLCLGLGSVGFGAITAFITLYYAGHGWDHAALALTALGTCFVLTRLIMADSITRFGGYPVALVSFAVEAAGLAMLWLAQAPWQALAGAAVVGFGFSLVFPSLGIEAVKRVPATNRGSALGAYALFFDFSLGLTGPVAGLITKHAGYPAVYLFAALAAVLALVLSQVLAARYRDRLAPAT”, the protein production result is given as “failed”. “FTCPITKEEMKKPVKNKVCGHTYEEDAIVRMIESRQKRKKKAYCPQIGCSHTDIRKSDLIQDEALRRAIENHNKKRHRHSE”: the protein production entry is “not failed”. In the case of “MLISIESKEHYRILCIDGGSTDQTIPMIERLQRELKHISLIQLQNASIATCINKGLMDIKMTDPHDSDAFMVINPTSIVLPGKLDRLTAAFKNNDNIDMVIGQRAYNYHGEWKLKSADEFIKDNRIVTLTEQPDLLSMMSFDGKLFSAKFAELQCDETLANTYNHAILVKAMQKATDIHLVSQMIVGDNDIDTHATSNDEDFNRYIIEIMKIRQRVMEMLLLPEQRLLYSDMVDRILFNNSLKYYMNEHPAVTHTTIQLVKDYIMSMQHSDYVSQNMFDIINTVEFIGENWDREIYELWRQTLIQVGINRPTYKKFLIQLKGRKFAHRTKSMLKRLEHHHHHH”, the protein production entry is listed as “failed”.

As to “MDISILQAVLIGLWTAFCFSGMLLGLYTNRCIVLSLGVGVILGDIQTALAVGAISELAYMGFGVGAGGTVPPNPIGPGIFGTLMAITTAGTKGKITPEAALALSTPIAVGIQFLQTATYTAFAGAPETAKKALQAGNFRGFKIAANGTIWAFAGLGFGLGVLGALSTQTLTDLFALIPPVLLNGLTLAGKMLPAIGFAMILSVMAKKELIPYILLGYVLAVYFGLPVLTPTANGDGVLTSVATNSVLGVPTIGVAIIATIFALLDIFRKPAAPTKETKTEGDNQDDWI”, the protein production entry is recorded as “failed”. For “MRSTEVGRVVEDFIVLPPTPKSKWKLSDFELLHKLGGGNYGDVHLASVKDCNFVCALKRLSIKKLADFDIATQLRREIEIAFNTRHKYLLRTYAYFFDETDIYLIMEPCSNGMLYTELNRVKCFAPPTAARYVAQLAEALLYLHQHHILHRDIKPENILLDHNNNIKLADFGWSVHDPDNRRKTSCGTPEYFPPEIVGRQAYDTSADLWCLGIFCYELLVGKTPFVGKDTDQICKNIHSMHFKIPENIPSEAKDLIANLLLRDGSRRLALHRVVNHQFLLKYYYLPNNLQPPTGKRPRLDAEPTAGKEN” the value was “failed”; for “MKHAKDIKVHKFNGPVKNDGKISVLVLGADKASGGKSRSDSIMVVQYDYIHKKMKMMSVMRDIYAEIPGYQNYKINAAYSLGGPELLRKTLNKNLGINPEYYAVIDFTGFEKMIDELEPNGVPMDVEKDMSENIGVSLKKGHHRLNGKELLGYARFRHDEEGDFGRVRRQQQVMQTLKKELVTPSSVIKLPKVAGILRGYINTSMPNSAIFQTGISYGIRGDKNVESLTVPINNSYQNINTNNDGSALEIDKEKNKKAVKEFLNNLEHHHHHH”, “failed”; for “MIAITLLVVIDQVALSQTFPILTIIYALATILPAWGVLVRRLHDIGRSGWWMLISCVPLVGGIILFVFTVMDSQQGDNQFGASPKAAL”, “failed”. For “SGARRQALIDAQSWRLRYERIMREVGVATVEYEAASGRATWGMGAGKVLGEDVARISSLDEWLEHIAPDERGLVEATWSSVASGETWASEQSYTLMRTDGEPLRVRERLACVRGADDSVEMVVGMLRPEPLESGDG” the value was “failed”; for “MTISWFQAALLGLFACLSSMPGLGGTTIGNYTLGRPLVGGLVCGLILGDIKTGIVCGVAMQLVYIALVTPGGTVSADVRAVSYIGIPLAMVAIHSQGLSATSSDAANLAKSMGTLVGTIGTVLFYGTATMNLVWQHIGWQAVEKREFKRLYVVDWGLPWISHIVFSFIPTLIMCKLGADAVTALKNALPMDGIPMKTLFTVGSLLPCVGIAILLKQIVEKAVDFIPFFVGFTLAASLGLNLVSCAVISLIFAVLFYELETIKNMRATASAEASDFDDDDEEDI”, “failed”.
